Reference: publication PMC12503259, “Establishment of an in vivo analytical method for detecting total anti-UFH activity and pharmacokinetic study in PS and R15 in rats” (PLOS One, 2025)

Tests used:
[1] = Stability in rat plasma after three freeze-thaw cycles; type: in vitro ADME; conditions: for RE%: plasma sample, freeze-thaw three cycles in -20℃, n=6; for Measured concentration after storage, Mean ± SD / RE (%) versus nominal concentration: rat plasma, three freeze (−80°C)-thaw (25°C) cycles; for Measured concentration after storage, Mean ± SD: n = 6
Procedure: Processing of Plasma Samples: 100 μL of the unknown plasma sample was added to 500 μL of 75% methanol (methanol: water = 75:25, v/v) and vortex-mixed for 5 seconds. The mixture was then centrifuged at 12,000 r/min for 10 minutes at 25°C. The supernatant (500 μL) was collected and dried under nitrogen at 60°C. Subsequently, UFH (0.14 U·mL^-1 for PS and 0.15 U·mL^-1 for R15; 120 μL) was added, and the mixture was vigorously shaken at room temperature for 10 minutes. The residual UFH content was measured using the Heparin Anti-FXa assay kit.
The detailed procedure is as follows: Accurately pipette 40 μL of the sample into a 96-well plate. Place the plate in a microplate shaker. Using a multichannel pipette, add 40 μL of reagent R1 and mix by shaking. Incubate at 37 °C for exactly 3 minutes (start timing upon addition of R1; at 50 seconds, begin shaking with the microplate shaker for 1 minute, then place the plate in the incubator). Remove the 96-well plate from the incubator and place it on the open microplate shaker. Using a multichannel pipette, add 40 μL of reagent R2 to each well and incubate at 37 °C for 6 minutes (after adding R2, at 3 minutes and 50 seconds, open the microplate shaker and shake for 4 minutes, then return the plate to the incubator). Remove the 96-well plate from the incubator and place it on the open microplate shaker. Quickly add 40 μL of reagent R3 using a multichannel pipette and shake until 9 minutes and 10 seconds. At 9 minutes and 30 seconds, add 80 μL of 20% acetic acid to each well to terminate the reaction. Measure the absorbance at 405 nm using a microplate reader (Multiskan FC, Thermo Fisher US).
Two concentration levels (low and high QC) were evaluated for validation of storage stability and freeze/thaw stability. Two concentration levels of PS and R15 (low and high QC) in blank rat plasma were prepared (n = 6), respectively. Samples in rats’ plasma were determined after storage at room temperature (25°C ± 1°C) for 30 min. […] Stock solution of PS and R15 were stored at 4°C for a week. All the samples mentioned above were processed by calibration curves with adequate QC samples diluted from newly prepared stock solution of PS and R15, followed by procedure of sample determination (see “Sample Preparation”), respectively.

[2] = Specific activity, units of UFH neutralized per mg; type: biochemical; conditions: units of UFH exactly neutralized per milligram
Excerpt: Since the toxicity of both PS and R15 correlates with their heparin antagonism capacity (i.e., potency), the units used for PS and R15 in most experiments are U·mL^-1 or U·kg^-1. Employing activity units (U) allows for a more scientifically rigorous comparison of the pharmacokinetic parameters of PS and R15 under equivalent activity levels (i.e., equivalent heparin antagonism capacity).
The specific activity of PS is 150 U·mg^-1, meaning that each milligram of PS can exactly neutralize 150 units of UFH. The specific activity of R15 is 170 U·mg^-1, meaning that each milligram of R15 can exactly neutralize 170 units of UFH. Therefore, expressing the concentration of PS as 1 U·mL^-1 denotes that each milliliter of the medium contains sufficient PS to neutralize 1 unit of UFH, and the same applies to R15.

complement = conditions: under UFH excess; cited from earlier work
Excerpt: PS and UFH-PS complexes activate complement. Complement fragments can accumulate in the pulmonary microcirculation, up-regulate endothelial adhesion molecules, and recruit neutrophils and monocytes, forming inflammatory microthrombi.

[3] = system: activated partial thromboplastin time (APTT); conditions: in vitro, supratherapeutic amounts; cited from earlier work
[4] = clinical use; cited from earlier work
Excerpt: PS is a cationic protein mixture with a molecular weight of 4000–6000 Da, and is the only heparin antagonist approved for clinical use. PS is primarily extracted from the sperm of wild salmon species, and this cationic protein binds to the anionic heparin, forming a UFH-PS complex that neutralizes the activity of heparin [7–10]. However, PS is associated with several adverse reactions in clinical applications, such as systemic hypotension, pulmonary hypertension, and allergic reactions. Despite extensive exploration of its mechanisms, the underlying causes of PS-related a ...

[5] = in vivo; cited from earlier work
Excerpt: In clinical practice, PS is typically administered at 1.2 times the anti-heparin activity of circulating UFH to achieve complete neutralization [40, 41].

Q: What does the source list for Protamine sulfate [PS]?
A: RE% ([1]; nominal 0.70 μg/mL): 10.71%; RE% ([1]; nominal 1.50 μg/mL): 5.78%; Measured concentration after storage, Mean ± SD ([1]; nominal 0.7 μg·mL^-1, anti-FXa read-out at 405 nm): 0.78 ± 0.02 µg/mL; RE (%) versus nominal concentration ([1]; nominal 0.7 μg·mL^-1, n = 6): 10.71%; Measured concentration after storage, Mean ± SD ([1]; nominal 1.5 μg·mL^-1, anti-FXa read-out at 405 nm): 1.59 ± 0.04 µg/mL; RE (%) versus nominal concentration ([1]; nominal 1.5 μg·mL^-1, n = 6): 5.78%; specific activity [2]: 150 U·mg^-1; complement activation by UFH-PS complex relative to UFH–R15 complex (complement): 8.28 fold; effect of excess on APTT [3]: persistently prolonged APTT; rate of mild adverse reactions [4]: ≤ 16%; T1/2 [5]: 7.4 min
